Data as given in PMC9364112, “A natural fusion of flavodiiron, rubredoxin, and rubredoxin oxidoreductase domains is a self-sufficient water-forming oxidase of Trichomonas vaginalis” (The Journal of Biological Chemistry, 2022).
Each block holds one molecule with its values, some of them ahead of it.

What was measured:
TvFDPF3 (holoTvFDPF3) [1] = molecular target: T1, TvFDPF3 (holoTvFDPF3) (Trichomonas vaginalis, UniProt A2E972); experiment: LC-MS quantification of bound flavin; format: binding; details: co-purified cofactor, FDP domain
T1 construct: gene TVAG_121610; full length, 871 residues, C-terminal His6 (pET30a, E. coli BL21 Star DE3), ~100 kDa on SDS-PAGE; FDP-core head-to-tail dimer; holo preparation with full FAD/FMN
T1 sequence (A2E972 1-871): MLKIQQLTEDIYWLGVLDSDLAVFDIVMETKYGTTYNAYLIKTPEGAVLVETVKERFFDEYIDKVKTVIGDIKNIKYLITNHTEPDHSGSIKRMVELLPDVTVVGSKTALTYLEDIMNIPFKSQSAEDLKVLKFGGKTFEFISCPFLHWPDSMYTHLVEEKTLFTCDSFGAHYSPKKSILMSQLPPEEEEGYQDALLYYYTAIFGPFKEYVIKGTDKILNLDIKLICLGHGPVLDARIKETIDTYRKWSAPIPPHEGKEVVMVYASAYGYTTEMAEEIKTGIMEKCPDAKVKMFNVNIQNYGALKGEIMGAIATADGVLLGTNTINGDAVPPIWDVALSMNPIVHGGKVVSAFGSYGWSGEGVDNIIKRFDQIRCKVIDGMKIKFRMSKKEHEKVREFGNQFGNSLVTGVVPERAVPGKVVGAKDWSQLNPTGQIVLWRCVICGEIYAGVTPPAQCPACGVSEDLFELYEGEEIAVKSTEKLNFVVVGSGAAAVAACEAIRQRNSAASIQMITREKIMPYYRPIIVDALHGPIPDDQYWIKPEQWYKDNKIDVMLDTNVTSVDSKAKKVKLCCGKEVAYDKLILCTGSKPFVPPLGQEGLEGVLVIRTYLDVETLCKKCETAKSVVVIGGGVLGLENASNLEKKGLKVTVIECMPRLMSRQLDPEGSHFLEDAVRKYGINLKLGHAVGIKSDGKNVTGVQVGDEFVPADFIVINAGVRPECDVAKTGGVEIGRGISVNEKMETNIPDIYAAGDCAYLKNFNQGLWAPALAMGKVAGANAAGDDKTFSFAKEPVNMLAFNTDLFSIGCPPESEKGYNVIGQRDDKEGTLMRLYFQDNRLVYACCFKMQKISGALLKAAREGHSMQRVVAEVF
Description: LC-MS quantification of bound flavin on TvFDPF3 (holoTvFDPF3)

TvFDPF3 (holoTvFDPF3) [2] = molecular target: T1, TvFDPF3 (holoTvFDPF3); experiment: anaerobic UV-visible titration, charge-transfer band at […] nm; format: binding
[3] = molecular target: class F flavodiiron protein 3 from Trichomonas vaginalis (TvFDPF3) (Trichomonas vaginalis); experiment: cryo-EM structure; single-particle cryo-EM of holoTvFDPF3 at 0.8 mg/ml in buffer E (50 mM Hepes-NaOH pH 7.5, 150 mM NaCl); map without symmetry 6.6 Å, C2-symmetric map 6.8 Å; homology models of the domains docked into the density
purified protein [4] = substrate: NC(=O)C1=CN([C@@H]2O[C@H](COP(=O)(O)OP(=O)(O)OC[C@H]3O[C@@H](n4cnc5c(N)ncnc54)[C@H](O)[C@@H]3O)[C@@H](O)[C@H]2O)C=CC1; experiment: purified protein; format: biochemical, Trichomonas vaginalis; details: O2 of air-saturated buffer, 50 mM Hepes-NaOH pH 7.5, 150 mM NaCl, 37 °C
purified protein [5] = substrate: NC(=O)C1=CN([C@@H]2O[C@H](COP(=O)(O)OP(=O)(O)OC[C@H]3O[C@@H](n4cnc5c(N)ncnc54)[C@H](OP(=O)(O)O)[C@@H]3O)[C@@H](O)[C@H]2O)C=CC1; experiment: purified protein; format: biochemical, Trichomonas vaginalis; details: O2 of air-saturated buffer, 50 mM Hepes-NaOH pH 7.5, 150 mM NaCl, 37 °C
[6] = holoTvFDPF3 (full FAD and FMN), kcat per monomer
[7] = preparation with about 1% FMN, kcat per monomer
[8] = preparation with about 1% FMN, kcat per monomer, NAD(P)H tested 0.5-600 μM
[9] = preparation with 0.32 FAD and 0.009 FMN per monomer
[10] = preparation with 0.32 FAD and 0.009 FMN per monomer, kcat per monomer
[11] = preparation with 0.32 FAD and 0.009 FMN per monomer, NAD(P)H tested 0.5-600 μM
[12] = preparation with 0.32 FAD and 0.009 FMN per monomer, kcat per monomer, NAD(P)H tested 0.5-600 μM

Molecule: Cc1cc2nc3c(=O)[nH]c(=O)nc-3n(C[C@H](O)[C@H](O)[C@H](O)COP(=O)(O)O)c2cc1C [FMN]
FMN per protein monomer (TvFDPF3 (holoTvFDPF3) [1]): 0.92 ± 0.09 mol per mol monomer

Molecule: NC(=O)c1ccc[n+]([C@@H]2O[C@H](COP(=O)(O)OP(=O)(O)OC[C@H]3O[C@@H](n4cnc5c(N)ncnc54)[C@H](O)[C@@H]3O)[C@@H](O)[C@H]2O)c1 [NAD^+]
Kd (TvFDPF3 (holoTvFDPF3) [2]): ~130 nM

stoichiometry N [3]: 2
Molecule: class F flavodiiron protein 3 from Trichomonas vaginalis (TvFDPF3) (enzyme)

B1: TvFDPF3 (holoTvFDPF3) (Trichomonas vaginalis G3) (protein)
chain: T1 sequence (A2E972 1-871)
notes: full length, 871 residues, C-terminal His6 (pET30a, E. coli BL21 Star DE3), ~100 kDa on SDS-PAGE; FDP-core head-to-tail dimer; holo preparation with full FAD/FMN
Km (purified protein [4]; [6]): 56 ± 2 µM | Vmax (purified protein [4]; [6]): 291 µmol/min/mg | kcat (purified protein [4]; [6]): 466 ± 42 s⁻¹ | kcat/Km (purified protein [4]; [6]): 8.3e+06 ± 800000 M⁻¹ s⁻¹ | Km (purified protein [5]; [6]): 427 ± 160 µM | Vmax (purified protein [5]; [6]): 11 µmol/min/mg | kcat (purified protein [5]; [6]): 18 ± 6 s⁻¹ | kcat/Km (purified protein [5]; [6]): 41000 ± 21000 M⁻¹ s⁻¹

B2: TvFDPF1 (Trichomonas vaginalis G3) (protein)
chain: MLKIQQLTEDIYWLGALDPTLAVFDIIMETKYGTTYNAYMIKTPAGAVLVETVKECFFEEYIEKVKSVIGDINNIKYLITNHTEPDHSGSIKKIIEIIPGLTVIGSKTALTYLEDIVNIPFRGHSAEDLKALKFGGKTFEFISCPFLHWPDSMYTWLPEEQALFTCDSFGAHYSPKKSILMSELPPEEEDGYQEALLYYYTAIFGPFKDFVIKGTDKILDLDIKIICLGHGPVLDARVQETIDTYRKWSEPALPHPGIEVVMVYASAYGYTTEMAEEIKNGILDKIPDASVKMYNVNIQNYGGMKADIMNSIATADGVLLGTNTINGDAVPPIWDVALSMNPIVHGGKIVTAFGSYGWSGEGVDNIINRFDKIRCKVVEPIKIKFRMSKKEHKQVREFGRRFADCLESGEVPDRAVPGRVVGAKDWSELNPTGAIVLWRCVICGEIYAGVTPPLVCPACGVGQDLFELYEAEEVTCSSFENLKFVVVGSGAAAVSAIDAIRARNTVASITMLTREKIMPYYRPIIVDALNSEISPENYYLKNEDWYTENNITVKLGTTVKSIDTARKSLTLSDGSTMQYDRLILATGSRPFVPPIGHEGLTGVYVIRTSNDVELLKETCKTAKKAVVIGGGVLGLENASAIKDRGLSVTVVECMPRLMARQLDPEASEILQGFVRDYGVDLRMGQCVVIKGDGKKVTGVQVGDEFISADFVVVNAGVRAESEVAAAAGIECSRGITVNNKMETSAQDVYAAGDCAYMENINQGLWAPALAMGKVAGANAAGDSKTFHFSIEPVNMIAMGTDLFAVGIPPDSPKGYNVISQRDEKEGTAIKLYFKDNRLVYAAGFKCQKQSGFLLKGVRNGHTLQHVLAELF
notes: full length, 871 residues, C-terminal His6 (pET30a, E. coli BL21 Star DE3); 272 kDa by gel filtration
Km (purified protein [4]; [7]): 2.9 ± 0.8 µM | Vmax (purified protein [4]; [7]): 4.9 µmol/min/mg | kcat (purified protein [4]; [7]): 7.8 ± 1.9 s⁻¹ | kcat/Km (purified protein [4]; [7]): 2.6e+06 ± 900000 M⁻¹ s⁻¹ | Km (purified protein [5]; [8]): 1475 ± 486 µM | Vmax (purified protein [5]; [8]): 4.9 µmol/min/mg | kcat (purified protein [5]; [8]): 7.8 ± 3.3 s⁻¹ | kcat/Km (purified protein [5]; [8]): 5200 ± 2800 M⁻¹ s⁻¹

B3: TvFDPF2 (Trichomonas vaginalis G3) (protein)
chain: MLKIQQLTEDIYWLGVLDSNLAVFDIIMETKYGTTYNAYLIKTPEGAVLVETVKETFFDEYIEKVKSVIGDIHKIKYLITNHTEPDHSGSIKKMIELIPDLTVVGSKTALTYLEDIVNIPFKGHSAEDLKVLKFGGKSFEFISCPFLHWPDSMYTWVPEEKTLFTCDSFGAHYSPKKSILMSQLPPEEEEGYQDALLYYYTAIFGPFKEYVIKGTDKILNLDIKLVGLGHGPVLDARIKETIDTYRKWSAPLPTHEGKEVVMVYASAYGYTTEMAEEIKAGILAKIPDAKIKMFNVNIQNYGGLKGEIMNAIATADGVLLGTNTINGDAVPPVWDVALSMNPIVHGGKIVTAFGSYGWSGEGVDNIIARFDQIRCKVIDGCKIKFRMSKKEHGKVNEFGQQFGEALITGKVPERAVPGKVVGAKDWSELNPTGAVVLWRCVICGEIYAGVTPPLQCPACGVGQDLFELYEAEQVTHKSTEPLNYVIVGSGAAAVASIEAIRARNAVAKITMISREKVMPYYRPIIVDALNAEIAPDKYFLKNEEWYKENKIEIKLDTSVTAIDTKAKKVKLCRGDELAYDKLILATGSRPFIPPIGHEGLSGVIVIRTSADVDQLKAACQTAKKAVVIGGGVLGLENASAIKEKGVAVTVVECMPRLMARQLDTEASAVLLEEVKKFGVDVRLGMTVSIKGDGKHVTGVQVGEEFIPADFVVVNAGVRAESEVAAAAGIKCGRGIIVNNKMETNVPDVYAAGDCAFLDNMNQGLWAPALAMGKVAGANACGDNKTFAFAIEPVSMIAMGTDLFACGNPPESAQGYNVVSQKDDKEGSAIKLYFKDNRLVYAAGFRIQKISGSLLKGVREGRSLERIMAEIF
notes: full length, 871 residues, C-terminal His6 (pET30a, E. coli BL21 Star DE3); aggregation-prone; poor FAD and FMN occupancy
kcat (purified protein [4]; [9]): 9.6 ± 0.3 s⁻¹ | kcat/Km (purified protein [4]; [9]): 530000 ± 60000 M⁻¹ s⁻¹ | Km (purified protein [4]; [10]): 18 ± 2 µM | Vmax (purified protein [4]; [10]): 6.1 µmol/min/mg | kcat (purified protein [5]; [11]): 1.7 ± 0.3 s⁻¹ | kcat/Km (purified protein [5]; [11]): 1400 ± 300 M⁻¹ s⁻¹ | Km (purified protein [5]; [12]): 1171 ± 208 µM | Vmax (purified protein [5]; [12]): 1.1 µmol/min/mg
